Assays:
Experiment in all cases: cell-based or functional assay
[1] = target: Street rabies virus Ferret Badger, ZJ-LA, Zhejiang (rabies virus)
[2] = target: Street rabies virus Ferret Badger, JX08-45, Jiangxi (rabies virus)
[3] = target: Street rabies virus Dog, GN07, Guangdong (rabies virus)
[4] = target: Street rabies virus Dog, SC-CD09, Sichuan (rabies virus)
[5] = target: Street rabies virus Human, YN1, Yunnan (rabies virus)
[6] = target: Street rabies virus Dog, BD06, Hebei (rabies virus)
[7] = target: Street rabies virus Human, HN35, Hunan (rabies virus)
[8] = target: Street rabies virus Dog, ZJ-HZ09, Zhejiang (rabies virus)
[9] = target: Street rabies virus Ferret Badger, JX09-27, Jiangxi (rabies virus)
[10] = target: CVS-11 rabies virus (rabies virus) (UniProt O92284)
UniProt O92284, sequence (O92284 20-524): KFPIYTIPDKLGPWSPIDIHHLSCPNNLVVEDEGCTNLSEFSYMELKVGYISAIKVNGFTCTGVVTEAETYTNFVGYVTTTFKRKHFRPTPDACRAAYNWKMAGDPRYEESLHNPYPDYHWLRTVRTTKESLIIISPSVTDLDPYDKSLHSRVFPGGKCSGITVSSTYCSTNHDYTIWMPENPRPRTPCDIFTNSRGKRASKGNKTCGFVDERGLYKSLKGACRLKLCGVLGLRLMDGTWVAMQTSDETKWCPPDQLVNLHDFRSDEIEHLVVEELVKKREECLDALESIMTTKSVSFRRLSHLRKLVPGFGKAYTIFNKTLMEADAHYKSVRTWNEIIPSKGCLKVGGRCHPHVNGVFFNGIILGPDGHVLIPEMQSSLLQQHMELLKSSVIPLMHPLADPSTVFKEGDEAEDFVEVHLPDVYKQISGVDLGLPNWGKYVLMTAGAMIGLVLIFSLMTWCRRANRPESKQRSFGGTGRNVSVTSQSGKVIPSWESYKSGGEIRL

[11] = target: Street rabies virus Deer, DRV, Jilin (rabies virus)

Binder | mouse neutralization test (MNT): survivors of 8 mice at day 20 (of 8 surviving) [1] | mouse neutralization test (MNT): survivors of 8 mice at day 20 (of 8 surviving) [2] | mouse neutralization test (MNT): survivors of 8 mice at day 20 (of 8 surviving) [3] | mouse neutralization test (MNT): survivors of 8 mice at day 20 (of 8 surviving) [4] | mouse neutralization test (MNT): survivors of 8 mice at day 20 (of 8 surviving) [5] | mouse neutralization test (MNT): survivors of 8 mice at day 20 (of 8 surviving) [6] | mouse neutralization test (MNT): survivors of 8 mice at day 20 (of 8 surviving) [7] | mouse neutralization test (MNT): survivors of 8 mice at day 20 (of 8 surviving) [8] | mouse neutralization test (MNT): survivors of 8 mice at day 20 (of 8 surviving) [9] | Neutralization potency (IU/mg), FAVN [10] [IU/mg] | Neutralization potency (IU/mg), RFFIT [10] [IU/mg] | Neutralizing Potency (IU/mg), RFFIT [10] [IU/mg] | mouse neutralization test (MNT): survivors of 8 mice at day 20 (of 8 surviving) [11] | mouse neutralization test (MNT): survival rate at 0.004 mg/mL antibody [10] [%]
Mouse CT.RV 7G11A3 2G11 (antibody, V domains shown) VH: EVQLVESGGGLVKPGGSLILSCAASGFTFSGFAMSWVRQTPEKRLEWVATISSGGTYTYSPDSVMGRFTISRDNAKNTLYLQMSSLRSEDTAMYYCARRLRRNYYSMDYWGQGTSVTVSS VL: DVVLTQAPLSLPVNIGDQASISCKSTKSLLNSDGFTYLDWYLQKPGQSPQLLIYLVSNRFSGVPDRFSGSGSGTDFTLKISRVEAEDLGIYFCFQSNYLPFTFGSGTKLEIK | 8 | 8 | 7 | 8 | 7 | 6 | 8 | 7 | 8 | 8310 | 1670 | 701 | 8 | 
Hu1A9-1 (antibody, V domains shown) VH: QVQLVQSGAEVKKPGASVKVSCKASGYSFTDYIMLWVRQAPGQRLEWIGDIYPYYGSTSYNLKFKGKATLTVDTSASTAYMELSSLRSEDTAVYYCARQGGDGNYVLFDYWGQGTLVTVSS VL: DIQMTQSPSSLSASVGDRVTITCKASQNVGTTVAWYQQKPGKAPKALIYSASYRYSGVPSRFSGSGSGTDFTLTISSLQPEDFATYYCQQYNSYPFTFGQGTKLEIKR |  |  |  |  |  |  |  |  |  | 2100 | 2290 |  |  | 100
Hu1A9-2 (antibody, V domains shown) VH: QVQLVQSGAEVKKPGASVKVSCKASGYSFTDYIMLWVRQAPGQRLEWIGDIYPYYGSTSYNLKFKGKATLTVDTSASTAYMELSSLRSEDTAVYYCARQGGDGNYVLFDYWGQGTLVTVSS VL: DIQMTQSPSSLSASVGDRVTITCKASQNVGTTVAWYQQKPGKAPKVLIYSASYRYSGVPSRFSGSGSGTDFTLTISSLQPEDFATYYCQQYNSYPFTFGQGTKLEIKR |  |  |  |  |  |  |  |  |  | 405 | 1310 |  |  | 
Mouse CT.RV 3D11E3 1A9 (antibody, V domains shown) VH: EIQLQQTGPELVKPGASVKISCKASGYSFTDYIMLWVKQSHGKSLEWIGDIYPYYGSTSYNLKFKGKATLTVDKSSSTAYMQLNSLTSEDSAVYYCARQGGDGNYVLFDYWGQGTTLTVSS VL: DIVMTQSQKFMSTSVGDRVSVTCKASQNVGTTVAWYQQKPGQSPKALIYSASYRYSGVPDRFTGSGSGTDFTLTISNVQSEDLAEYFCQQYNSYPFTFGSGTKLEIK | 7 | 8 | 7 | 8 | 7 | 4 | 8 | 6 | 8 | 308 | 1260 | 3680 | 7 | 50

— patent US20150110781A1
